In the RNAGym collection of RNA variant scans (doi:10.7554/elife.90254) one finds self-cleavage data, which are given here for 56 variants.

To fix the notation:
B1: LINE1-mini (parent)
chain: GGCAGAGCUCAACACAGCGUGGCAAAGUGGCUGUGGCUAGACUGCC

In the data set the parent is B1. Put plainly: self-cleavage, relative activity (ratio to wild type); higher = more cleavage; in vitro, sequencing; the parent is a self-cleaving ribozyme.
On to AGCAGAGCUCAACUCAGCGUGGCAAAGUGGCUGUGGCUAGACUGCC [G1A A14U], for which the self-cleavage was 0.27.

As to AGCAGAGCUCAACGCAGCGUGGCAAAGUGGCUGUGGCUAGACUGCC [G1A A14G], the self-cleavage was 0.39.

For AGCAGAGCUCAACCCAGCGUGGCAAAGUGGCUGUGGCUAGACUGCC [G1A A14C], the self-cleavage was found to be 0.1.

Regarding AGGAGAGCUCAACACAGCGUGGCAAAGUGGCUGUGGCUAGACUGCC [G1A C3G], the self-cleavage stood at 0.56.

AGUAGAGCUCAACACAGCGUGGCAAAGUGGCUGUGGCUAGACUGCC [G1A C3U]: the self-cleavage came out at 0.47.

AGCAGUGCUCAACACAGCGUGGCAAAGUGGCUGUGGCUAGACUGCC [G1A A6U]: the self-cleavage came out at 1.55.

As to AGCAGGGCUCAACACAGCGUGGCAAAGUGGCUGUGGCUAGACUGCC [G1A A6G], the self-cleavage was found to be 0.09.

Take AGCAGCGCUCAACACAGCGUGGCAAAGUGGCUGUGGCUAGACUGCC [G1A A6C]: the self-cleavage turned out to be 0.81.

With AGCAGAGCUCAACACAGCGUGGCAAAGUGGCUGUGGCUGGACUGCC [G1A A39G], the self-cleavage worked out at 0.12.

As for AGCAGAGCUCAACACAGCGUGGCAAAGUGGCUGUGGCUCGACUGCC [G1A A39C], the self-cleavage was determined as 0.14.

For AGCAGAGCUCAACACAGCGUGGCAAAGUGGCUGUGGCUUGACUGCC [G1A A39U], the self-cleavage is 1.46.

For the variant AGCUGAGCUCAACACAGCGUGGCAAAGUGGCUGUGGCUAGACUGCC [G1A A4U], the self-cleavage was determined as 0.27.

As for AGCCGAGCUCAACACAGCGUGGCAAAGUGGCUGUGGCUAGACUGCC [G1A A4C], the self-cleavage turned out to be 0.08.

Turning to AGCGGAGCUCAACACAGCGUGGCAAAGUGGCUGUGGCUAGACUGCC [G1A A4G], the self-cleavage is 0.31.

On to AGCAGAGCUCAUCACAGCGUGGCAAAGUGGCUGUGGCUAGACUGCC [G1A A12U], for which the self-cleavage stood at 0.19.

On to AGCAGAGCUCAGCACAGCGUGGCAAAGUGGCUGUGGCUAGACUGCC [G1A A12G], for which the self-cleavage is 0.04.

As for AGCAGAGCUCACCACAGCGUGGCAAAGUGGCUGUGGCUAGACUGCC [G1A A12C], the self-cleavage came out at 0.04.

In the case of AGCAGAGCUCAACACAGAGUGGCAAAGUGGCUGUGGCUAGACUGCC [G1A C18A], the self-cleavage was 1.81.

On to AGCAGAGCUCAACACAGUGUGGCAAAGUGGCUGUGGCUAGACUGCC [G1A C18U], for which the self-cleavage stood at 0.94.

In the case of AGCAGAGCUCAACACAGGGUGGCAAAGUGGCUGUGGCUAGACUGCC [G1A C18G], the self-cleavage turned out to be 0.38.

On to AGCAGAGCUCAACAGAGCGUGGCAAAGUGGCUGUGGCUAGACUGCC [G1A C15G], for which the self-cleavage amounted to 0.08.

In the case of AGCAGAGCUCAACAUAGCGUGGCAAAGUGGCUGUGGCUAGACUGCC [G1A C15U], the self-cleavage worked out at 1.02.

As for AGCAGAGCUCAACAAAGCGUGGCAAAGUGGCUGUGGCUAGACUGCC [G1A C15A], the self-cleavage was 0.06.

AGCAGAGCUCAACACUGCGUGGCAAAGUGGCUGUGGCUAGACUGCC [G1A A16U]: the self-cleavage came out at 0.1.

For the variant AGCAGAGCUCAACACCGCGUGGCAAAGUGGCUGUGGCUAGACUGCC [G1A A16C], the self-cleavage came out at 0.11.

AGCAGAGCUCAACACGGCGUGGCAAAGUGGCUGUGGCUAGACUGCC [G1A A16G]: the self-cleavage amounted to 0.25.

Take AGCAGAGCUCAACACAGCGUGGCAAAGUGGCUGUGGCUAGACUGCC [G1A]: the self-cleavage was determined as 1.11.

Regarding AGCAGAGCUCUACACAGCGUGGCAAAGUGGCUGUGGCUAGACUGCC [G1A A11U], the self-cleavage turned out to be 0.17.

AGCAGAGCUCCACACAGCGUGGCAAAGUGGCUGUGGCUAGACUGCC [G1A A11C]: the self-cleavage stood at 0.04.

On to AGCAGAGCUCGACACAGCGUGGCAAAGUGGCUGUGGCUAGACUGCC [G1A A11G], for which the self-cleavage came out at 0.06.

Consider AGCAGAGCUCAACACAGCGUGGCAAAGUGGGUGUGGCUAGACUGCC [G1A C31G], for which the self-cleavage amounted to 0.11.

In the case of AGCAGAGCUCAACACAGCGUGGCAAAGUGGAUGUGGCUAGACUGCC [G1A C31A], the self-cleavage was 0.12.

Turning to AGCAGAGUUCAACACAGCGUGGCAAAGUGGCUGUGGCUAGACUGCC [G1A C8U], the self-cleavage stood at 0.78.

AGCAGAGAUCAACACAGCGUGGCAAAGUGGCUGUGGCUAGACUGCC [G1A C8A]: the self-cleavage is 0.88.

In the case of AGCAGAGGUCAACACAGCGUGGCAAAGUGGCUGUGGCUAGACUGCC [G1A C8G], the self-cleavage worked out at 0.41.

Turning to AGCAGAGCUCAACACAGCGUGGUAAAGUGGCUGUGGCUAGACUGCC [G1A C23U], the self-cleavage came out at 1.29.

Regarding AGCAGAGCUCAACACAGCGUGGAAAAGUGGCUGUGGCUAGACUGCC [G1A C23A], the self-cleavage turned out to be 0.95.

On to AGCAGAGCUCAACACAGCGUGGGAAAGUGGCUGUGGCUAGACUGCC [G1A C23G], for which the self-cleavage came to 0.53.

Regarding AGCAGAGCUCAACACAGCGUGGCAAAGUGGCUGUGGCUAGGCUGCC [G1A A41G], the self-cleavage is 0.26.

Take AGCAGAGCUCAACACAGCGUGGCAAAGUGGCUGUGGCUAGCCUGCC [G1A A41C]: the self-cleavage came to 0.09.

Turning to AGCAGAGCUCAACACAGCGUGGCAAAGUGGCUGUGGCUAGUCUGCC [G1A A41U], the self-cleavage came to 0.97.

With AGCAGAGCUCAAAACAGCGUGGCAAAGUGGCUGUGGCUAGACUGCC [G1A C13A], the self-cleavage was 0.13.

For AGCAGAGCUCAAUACAGCGUGGCAAAGUGGCUGUGGCUAGACUGCC [G1A C13U], the self-cleavage was found to be 0.2.

For the variant AGCAGAGCUCAAGACAGCGUGGCAAAGUGGCUGUGGCUAGACUGCC [G1A C13G], the self-cleavage turned out to be 0.1.

Take AGCAGAGCUCAACACAGCGUGGCAACGUGGCUGUGGCUAGACUGCC [G1A A26C]: the self-cleavage amounted to 0.78.

As to AGCAGAGCUCAACACAGCGUGGCAAUGUGGCUGUGGCUAGACUGCC [G1A A26U], the self-cleavage is 0.53.

In the case of AGCAGAGCUCAACACAGCGUGGCAAGGUGGCUGUGGCUAGACUGCC [G1A A26G], the self-cleavage was determined as 1.58.

For AGCAGAGCUCAACACAGCGUGGCAGAGUGGCUGUGGCUAGACUGCC [G1A A25G], the self-cleavage came out at 0.39.

Consider AGCAGAGCUCAACACAGCGUGGCACAGUGGCUGUGGCUAGACUGCC [G1A A25C], for which the self-cleavage was found to be 1.36.

For the variant AGCAGAGCUCAACACAGCGUGGCAUAGUGGCUGUGGCUAGACUGCC [G1A A25U], the self-cleavage came to 1.09.

Regarding AGCAGAGCUCAACACAGCGUGGCGAAGUGGCUGUGGCUAGACUGCC [G1A A24G], the self-cleavage turned out to be 2.89.

AGCAGAGCUCAACACAGCGUGGCUAAGUGGCUGUGGCUAGACUGCC [G1A A24U]: the self-cleavage was determined as 1.15.

As for AGCAGAGCUCAACACAGCGUGGCCAAGUGGCUGUGGCUAGACUGCC [G1A A24C], the self-cleavage is 0.56.

For the variant AGCAGAGCUAAACACAGCGUGGCAAAGUGGCUGUGGCUAGACUGCC [G1A C10A], the self-cleavage worked out at 0.12.

Regarding AGCAGAGCUGAACACAGCGUGGCAAAGUGGCUGUGGCUAGACUGCC [G1A C10G], the self-cleavage is 0.18.

On to AGCAGAGCUUAACACAGCGUGGCAAAGUGGCUGUGGCUAGACUGCC [G1A C10U], for which the self-cleavage came out at 0.35.
